Laboratory results from patent US20070238638A1 (TANOX, published 2007).

Target: T1, NFκB family member p65 (human, UniProt Q04206 1-551)
T1 construct: also called p65 NFκB protein
Assay: EMSA gel supershift, HT29 nuclear extract on κB1 oligonucleotide
Method: Gel supershift assays were performed as described above, except that antibodies specific for various promoter-binding proteins were added after the initial binding reaction and the mixture was incubated overnight at 4° C.

T1 sequence (Q04206 whole entry): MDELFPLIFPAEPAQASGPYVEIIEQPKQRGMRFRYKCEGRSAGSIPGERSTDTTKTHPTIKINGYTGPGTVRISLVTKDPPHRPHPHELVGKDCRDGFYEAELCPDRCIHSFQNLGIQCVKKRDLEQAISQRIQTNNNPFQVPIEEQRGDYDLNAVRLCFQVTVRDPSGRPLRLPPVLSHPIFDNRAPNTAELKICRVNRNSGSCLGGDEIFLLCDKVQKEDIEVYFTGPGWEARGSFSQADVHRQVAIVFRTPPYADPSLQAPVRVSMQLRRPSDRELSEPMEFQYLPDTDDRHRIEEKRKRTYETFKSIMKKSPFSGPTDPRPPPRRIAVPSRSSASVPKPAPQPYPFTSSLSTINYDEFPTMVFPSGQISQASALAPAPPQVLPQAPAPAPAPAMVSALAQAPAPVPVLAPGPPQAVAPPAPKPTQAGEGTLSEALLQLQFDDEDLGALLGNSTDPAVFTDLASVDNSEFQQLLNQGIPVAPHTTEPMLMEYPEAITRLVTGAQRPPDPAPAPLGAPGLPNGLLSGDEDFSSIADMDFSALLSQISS

B1: NFκB family member p50 (other, human, UniProt P19838 1-433, looked up)
chain: MAEDDPYLGRPEQMFHLDPSLTHTIFNPEVFQPQMALPTDGPYLQILEQPKQRGFRFRYVCEGPSHGGLPGASSEKNKKSYPQVKICNYVGPAKVIVQLVTNGKNIHLHAHSLVGKHCEDGICTVTAGPKDMVVGFANLGILHVTKKKVFETLEARMTEACIRGYNPGLLVHPDLAYLQAEGGGDRQLGDREKELIRQAALQQTKEMDLSVVRLMFTAFLPDSTGSFTRRLEPVVSDAIYDSKAPNASNLKIVRMDRTAGCVTGGEEIYLLCDKVQKDDIQIRFYEEEENGGVWEGFGDFSPTDVHRQFAIVFKTPKYKDINITKPASVFVQLRRKSDLETSEPKPFLYYPEIKDKEEVQRKRQKLMPNFSDSFGGGSGAGAGGGGMFGSGGGGGGTGSTGPGYSFPHYGFPTYGGITFHPGTTKSNAGMKHG
notes: also called p50 NFκB protein
B1: binds.
